In article doi:10.1101/774737:

Target: dynein intermediate chain (DIC), endogenous, human iPSC-derived motor neurons (human (endogenous in iPSC-derived motor neurons)) (UniProt O14576)
Assay: proximity ligation

Chain of UniProt O14576 (O14576 whole entry): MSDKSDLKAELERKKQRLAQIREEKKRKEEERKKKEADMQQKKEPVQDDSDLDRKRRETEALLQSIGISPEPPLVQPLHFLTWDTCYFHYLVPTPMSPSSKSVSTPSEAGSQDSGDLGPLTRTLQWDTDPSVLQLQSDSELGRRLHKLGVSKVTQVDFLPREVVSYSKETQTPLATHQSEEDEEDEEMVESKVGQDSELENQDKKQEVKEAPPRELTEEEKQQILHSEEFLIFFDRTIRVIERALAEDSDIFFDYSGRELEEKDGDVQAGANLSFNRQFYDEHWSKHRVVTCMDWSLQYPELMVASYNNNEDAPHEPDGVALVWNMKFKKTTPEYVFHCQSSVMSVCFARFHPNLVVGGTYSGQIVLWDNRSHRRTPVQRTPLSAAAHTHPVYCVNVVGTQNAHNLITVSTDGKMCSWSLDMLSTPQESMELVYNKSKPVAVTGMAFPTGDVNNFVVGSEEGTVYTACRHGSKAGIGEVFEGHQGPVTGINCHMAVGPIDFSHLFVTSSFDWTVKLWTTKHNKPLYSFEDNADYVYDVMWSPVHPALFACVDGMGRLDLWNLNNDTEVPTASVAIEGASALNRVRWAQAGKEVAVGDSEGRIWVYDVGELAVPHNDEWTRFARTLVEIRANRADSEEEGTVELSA

With “CRMP4, endogenous, human iPSC-derived motor neurons (from UniProt Q14195 1-570) (natural protein)” the PLA puncta (C9orf72 iPSC-derived MN distal axons, without peptides) was 8.9.
